Reference: patent US20050129678A1 (published 2005)

T1: GST-Yil033C (yeast, UniProt P07278 1-416)
T1 construct: also called Yil033C-Bcy1; Yil033C-Bcyl; not shown: glutathione S-transferase (GST) fusion tag
T1 sequence (looked up): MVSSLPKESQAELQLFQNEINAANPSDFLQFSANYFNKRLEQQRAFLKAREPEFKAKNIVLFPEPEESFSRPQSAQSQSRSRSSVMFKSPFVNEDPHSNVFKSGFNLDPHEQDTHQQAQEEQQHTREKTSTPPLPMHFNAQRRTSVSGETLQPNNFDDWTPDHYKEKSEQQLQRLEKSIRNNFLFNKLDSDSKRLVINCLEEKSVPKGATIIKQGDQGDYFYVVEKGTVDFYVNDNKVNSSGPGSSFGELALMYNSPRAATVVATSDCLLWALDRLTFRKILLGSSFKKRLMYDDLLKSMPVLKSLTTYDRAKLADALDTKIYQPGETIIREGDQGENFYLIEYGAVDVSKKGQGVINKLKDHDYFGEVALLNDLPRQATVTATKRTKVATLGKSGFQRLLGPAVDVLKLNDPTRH

B1: endogenous Tpk1 (enzyme, yeast, UniProt P06244 2-397, looked up)
chain: STEEQNGGGQKSLDDRQGEESQKGETSERETTATESGNESKSVEKEGGETQEKPKQPHVTYYNEEQYKQFIAQARVTSGKYSLQDFQILRTLGTGSFGRVHLIRSRHNGRYYAMKVLKKEIVVRLKQVEHTNDERLMLSIVTHPFIIRMWGTFQDAQQIFMIMDYIEGGELFSLLRKSQRFPNPVAKFYAAEVCLALEYLHSKDIIYRDLKPENILLDKNGHIKITDFGFAKYVPDVTYTLCGTPDYIAPEVVSTKPYNKSIDWWSFGILIYEMLAGYTPFYDSNTMKTYEKILNAELRFPPFFNEDVKDLLSRLITRDLSQRLGNLQNGTEDVKNHPWFKEVVWEKLLSRNIETPYEPPIQQGQGDTSQFDKYPEEDINYGVQGEDPYADLFRDF
notes: Untagged yeast Tpk1 found in a GST fusion preparation; also called Tpk1wt; a protein with the same molecular weight as Tpk1
B2: GST-Yjl164C-Tpk1 (enzyme, UniProt P06244 1-397, looked up)
chain: MSTEEQNGGGQKSLDDRQGEESQKGETSERETTATESGNESKSVEKEGGETQEKPKQPHVTYYNEEQYKQFIAQARVTSGKYSLQDFQILRTLGTGSFGRVHLIRSRHNGRYYAMKVLKKEIVVRLKQVEHTNDERLMLSIVTHPFIIRMWGTFQDAQQIFMIMDYIEGGELFSLLRKSQRFPNPVAKFYAAEVCLALEYLHSKDIIYRDLKPENILLDKNGHIKITDFGFAKYVPDVTYTLCGTPDYIAPEVVSTKPYNKSIDWWSFGILIYEMLAGYTPFYDSNTMKTYEKILNAELRFPPFFNEDVKDLLSRLITRDLSQRLGNLQNGTEDVKNHPWFKEVVWEKLLSRNIETPYEPPIQQGQGDTSQFDKYPEEDINYGVQGEDPYADLFRDF
notes: not shown: glutathione S-transferase (GST) fusion tag
B3: GST-Ypl203W (enzyme, UniProt P06245 1-380, looked up)
chain: MEFVAERAQPVGQTIQQQNVNTYGQGVLQPHHDLQQRQQQQQQRQHQQLLTSQLPQKSLVSKGKYTLHDFQIMRTLGTGSFGRVHLVRSVHNGRYYAIKVLKKQQVVKMKQVEHTNDERRMLKLVEHPFLIRMWGTFQDARNIFMVMDYIEGGELFSLLRKSQRFPNPVAKFYAAEVILALEYLHAHNIIYRDLKPENILLDRNGHIKITDFGFAKEVQTVTWTLCGTPDYIAPEVITTKPYNKSVDWWSLGVLIYEMLAGYTPFYDTTPMKTYEKILQGKVVYPPYFHPDVVDLLSKLITADLTRRIGNLQSGSRDIKAHPWFSEVVWERLLAKDIETPYEPPITSGIGDTSLFDQYPEEQLDYGIQGDDPYAEYFQDF
notes: also called Ypl203W-Tpk2; Yp1203W; not shown: glutathione S-transferase (GST) fusion tag
B4: GST-Ykl166C (enzyme, UniProt P05986 1-398, looked up)
chain: MYVDPMNNNEIRKLSITAKTETTPDNVGQDIPVNAHSVHEECSSNTPVEINGRNSGKLKEEASAGICLVKKPMLQYRDTSGKYSLSDFQILRTLGTGSFGRVHLIRSNHNGRFYALKTLKKHTIVKLKQVEHTNDERRMLSIVSHPFIIRMWGTFQDSQQVFMVMDYIEGGELFSLLRKSQRFPNPVAKFYAAEVCLALEYLHSKDIIYRDLKPENILLDKNGHIKITDFGFAKYVPDVTYTLCGTPDYIAPEVVSTKPYNKSVDWWSFGVLIYEMLAGYTPFYNSNTMKTYENILNAELKFPPFFHPDAQDLLKKLITRDLSERLGNLQNGSEDVKNHPWFNEVIWEKLLARYIETPYEPPIQQGQGDTSQFDRYPEEEFNYGIQGEDPYMDLMKEF
notes: also called Ykl166C-Tpk3; Tpk3; not shown: glutathione S-transferase (GST) fusion tag

Columns and labels:
GST-Ykl166C [1] = molecular target: B4; test: co-purification with the GST fusion, Western blot with anti-Tpk1
Text: (§1) Tpk1 is a protein kinase involved in pseudohyphal growth and ras signal transduction (Robertson et al., 1998, Pro Natl Acad Sci USA 95, 13783-7; Tokiwa et al., 1994, Nature 371, 342-5). […] Three of these proteins, Ykl166C-Tpk3 (a protein kinase), Ypl203W-Tpk2 (a protein kinase) and Yil033C-Bcyl (a cAMP-dependent protein kinase inhibitor) have been shown by mass spectroscopy to be co-immunoprecipitated with Tpk1 (Ho et al., 2002, Nature 415, 180-3).
(§2) SDS-PAGE and Western analyses of Protein Samples. Purified proteins were mixed with sample buffer, heated and run in 5%/10% SDS-PAGE gels, transferred to nitrocellulose and blocked overnight with 1% BSA in TBST. Subsequently, blots were probed with primary antibodies for 2 hours, washed three times with TBST, probed with secondary antibodies conjugated to HRP for 1 hour and washed three times with TBST. Femto-reagent (Pierce Co., Milwaukee) was added and images acquired with an Alpha Innotech Imaging station.

GST-Yil033C = molecular target: T1, GST-Yil033C; test: microarray-based protein-protein interaction
GST-Ykl166C [2] = molecular target: B4; test: microarray-based protein interaction experiment
endogenous Tpk1 = molecular target: B1; test: co-purification with the GST fusion, Western blot with anti-Tpk1
Text: as §1, §2

binding result (GST-Ykl166C [1])	binding result (GST-Yil033C)	binding result (GST-Ykl166C [2])	binding result (endogenous Tpk1)	Binder
no binding				B1
	binds	no binding		B2
	binds		no binding	B3
	binds			B4
